In US20220275098A1 (NANTBIO, published 2022):

Target: T1, CD30 (analyte in SPR) (UniProt P28908 19-379, limits assumed)
T1 construct: also called Cluster of Differentiation 30; Ki-1
T1 sequence (looked up): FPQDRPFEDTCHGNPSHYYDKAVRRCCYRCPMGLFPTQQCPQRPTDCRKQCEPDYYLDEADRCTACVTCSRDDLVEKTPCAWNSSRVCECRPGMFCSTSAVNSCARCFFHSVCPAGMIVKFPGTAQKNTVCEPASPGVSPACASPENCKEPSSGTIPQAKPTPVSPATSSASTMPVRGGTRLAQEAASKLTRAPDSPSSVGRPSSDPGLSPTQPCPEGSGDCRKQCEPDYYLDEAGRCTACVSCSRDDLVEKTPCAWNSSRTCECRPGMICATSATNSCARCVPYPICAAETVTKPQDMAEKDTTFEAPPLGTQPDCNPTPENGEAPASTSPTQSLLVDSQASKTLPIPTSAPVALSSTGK
Assay: SPR, 25° C. pH 7.4, IgG1 captured on chip, CD30 as analyte, average value
Source text: Using the VH and VL domains as noted above, the inventors prepared various CD30 binding constructs, and exemplary results for scFv and IgG1 constructs are shown below.

| Binder | Kd |
| --- | --- |
| anti-CD30 IgG1 (52-2) (antibody, V domains shown, also called aCD30 clone 52-2 IgG1) VH: EVQLVESGGGLVQPGGSLRLSCAASGFTFSSYYMHWVRQAPGKGLEWVSAISWSGGSTYYADSVKGRFTISRDNSKNTLYLQMNSLRAEDTAVYYCARDRFMPFIPNTLGFDVWGQGTLVTVSS VL: DIQMTQSPSSLSASVGDRVTITCQASQDISNYLNWYQQKPGKAPKLLIYVASNLETGVPSRFSGSGSGTDFTFTISSLQPEDIATYYCQQDADVPLTFGQGTKVEIK | 3 nM |
| anti-CD30 IgG1 (52-38) (antibody, V domains shown, also called aCD30 clone 52-38 IgG1) VH: EVQLVESGGGLVQPGGSLRLSCAASGFTFSSYWMHWVRQAPGKGLEWVSAISWSGDSTYYADSVKGRFTISRDNSKNTLYLQMNSLRAEDTAVYYCARDRSATWYYLGLGFDVWGQGTLVTVSS VL: not shown | 2.5 nM |
| anti-CD30 IgG1 (52-5) (antibody, V domains shown, also called aCD30 clone 52-5 IgG1) VH: EVQLVESGGGLVQPGGSLRLSCAASGFTFSSYYMHWVRQAPGKGLEWVSAISWSGGSTYYADSVKGRFTISRDNSKNTLYLQMNSLRAEDTAVYYCARDRFMPFIPNTLGFDVWGQGTLVTVSS VL: DIQMTQSPSSLSASVGDRVTITCQASQDISNYLNWYQQKPGKAPKLLIYDASNLETGVPSRFSGSGSGTDFTFTISSLQPEDIATYYCQQDADVPLTFGQGTKVEIK | 22.3 nM |
